In patent US12655441B2, “PPO polypeptides tolerant to PPO-inhibiting herbicides and use thereof” (QINGDAO KINGAGROOT CHEMICAL COMPOUND CO., LTD., priority 2021, dated 2026):

Key:
[1] = system: PPO-deficient Escherichia coli (ΔhemG); test: PPO-deficient E. coli (ΔhemG) transformed by rice OsPPO1 mutant genes, growth on LB medium containing herbicide; conditions: 500 nM compound A
OsPPO1 = test: In vitro enzyme activity test of OsPPO1 proteins (fluorescence, substrate protoporphyrinogen); assay type: biochemical, rice; conditions: enzyme 500 nM, protoporphyrinogen 0.125-16 μM, excitation 410 nm, detection 630 nm
Procedure: Protoporphyrinogen, a substrate catalyzed by PPO, was prepared by reducing protoporphyrin with sodium amalgam. 10 mg of protoporphyrin was dissolved in 10 mL solvent, added with 20% sodium amalgam at the rate of 0.2 g/mL, reacted for 2 hours, then filtered under the protection of nitrogen in dark place. After the reaction was completed, the reaction solution should become achromatic or light brown. The reaction solution was diluted by adding with reaction buffer (100 mM Tris-HCl, 1 mM EDTA, 5 mM DTT, 0.1% Tween 20/80), and 10% hydrochloric acid was used to adjust pH to about 8.0. […]
3) The constructed fusion expression vector pET28a-MBP-OsPPO1 was transferred into E. coli BL21 (DE3), subjected to induced-expression with 0.5 mM IPTG, then purified with the Ni-NTA column, afterwards subjected to thrombin digestion, dialysed, and purified secondly by dextrin-column and Ni-column. […] The collected strains were re-suspended with the Ni-buffer A (50 mM Tris pH 8.0, 500 mM NaCl, 50 mM imidazole), homogenized by high pressure cell homogenizer, and centrifuged at 4000×g at 4° C. for 30 minutes; the supernatant was purified with the Ni column, then the purity thereof was detected by SDS-PAGE. The thrombin enzyme was added according to the quantity of proteins, dialyzed with 50 mM Tris pH 8.0, 500 mM NaCl, 1 mM DTT buffer. […]

B1: Y425I: Amino-acid sequence of PPO1 from rice mutant (protein)
chain: MAAAAAAMATATSATAAPPLRIRDAARRTRRRGHVRCAVASGAAEAPAAPGARVSADCVVVGGGISGLCTAQALATKHGVGDVLVTEARARPGGNITTAERAGEGYLWEEGPNSFQPSDPVLTMAVDSGLKDDLVFGDPNAPRFVLWEGKLRPVPSKPGDLPFFDLMSIPGKLRAGLGALGVRAPPPGREESVEDFVRRNLGAEVFERLIEPFCSGVYAGDPSKLSMKAAFGKVWRLEDTGGSIIGGTIKTIQERGKNPKPPRDPRLPTPKGQTVASFRKGLTMLPDAITSRLGSKVKLSWKLTSITKSDNKGYALVYETPEGVVSVQAKTVVMTIPSYVASDILRPLSSDAADALSIFYYPPVAAVTVSYPKEAIRKECLIDGELQGFGQLHPRSQGVETLGTIYSSSLFPNRAPAGRVLLLNIIGGSTNTGIVSKTESELVEAVDRDLRKMLINPKAVDPLVLGVRVWPQAIPQFLIGHLDHLEAAKSALGKGGYDGLFLGGNYVAGVALGRCVEGAYESASQISDYLTKYAYK
modifications: Amino-acid sequence of PPO1 from rice mutant (OsPPO1 Y425I)
With B1 the “growth of ΔhemG transformant on LB medium containing compound A, compared with the wild type” value [1] was “grew normally” and the “enzyme activity relative to WT” value (OsPPO1) was “lower than WT”.
